Publication PMC314469, “Protein Interaction Networks by Proteome Peptide Scanning” (PLoS Biology, 2004)

Tests used:
Test in all cases: SPOT array
[1] = target: T1, Boi1 SH3 (BOI1_YEAST), P38041
T1 chain: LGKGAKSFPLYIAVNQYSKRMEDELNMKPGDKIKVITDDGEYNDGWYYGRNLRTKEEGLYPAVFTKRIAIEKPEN

[2] = target: T2, Boi2 SH3 (BOI2_YEAST), P39969
T2 chain: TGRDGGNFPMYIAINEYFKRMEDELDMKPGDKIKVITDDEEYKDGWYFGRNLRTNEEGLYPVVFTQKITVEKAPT

[3] = target: T3, Rvs167 SH3 (RV167_YEAST), P39743
T3 chain: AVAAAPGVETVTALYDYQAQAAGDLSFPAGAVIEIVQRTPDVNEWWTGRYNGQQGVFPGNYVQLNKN

[4] = target: T4, Yfr024 SH3 (LSB3_YEAST), P43603
T4 chain: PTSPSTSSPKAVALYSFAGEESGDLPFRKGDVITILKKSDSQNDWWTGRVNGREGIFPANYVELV

[5] = target: T5, Yhr016c SH3 (YSC84_YEAST), P32793
T5 chain: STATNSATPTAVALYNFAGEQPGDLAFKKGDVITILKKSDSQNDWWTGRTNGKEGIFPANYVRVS

| Binder | normalised SPOT signal, Boehringer light units (BLU); mean over the file's lines of this peptide [1] | normalised SPOT signal, Boehringer light units (BLU); mean over the file's lines of this peptide [2] | normalised SPOT signal, Boehringer light units (BLU); mean over the file's lines of this peptide [3] | normalised SPOT signal, Boehringer light units (BLU); mean over the file's lines of this peptide [4] | normalised SPOT signal, Boehringer light units (BLU); mean over the file's lines of this peptide [5] |
| --- | --- | --- | --- | --- | --- |
| NLDPNPPVRGENLT [YDL046W 61-74] | 81.4 | 18.3 | 26.6 | 118 | 315 |
| NKIPPKPRKVLQLL [YGL076C 93-106] | 63.6 | 99.5 | 188 | 1730 | 172 |
| NNNPVPPQKINQPP [YDL203C 198-211] | 21.2 | 43.4 | 46.9 | 212 | 20.2 |
| NIQPDLPPRKIMIP [YBR239C 90-103] | 1500 | 111 | 33000 | 27200 | 56900 |
| NNAPTLPKRKNPKI [YPR055W 477-490] | 2740 | 62.5 | 19800 | 40800 | 45600 |
| NLKPERPSKVSFEM [YEL062W 548-561] | 103 | 52.6 | 805 | 4070 | 1350 |
| NMVPLNPNRIIPDE [YDR499W 189-202] | 31.3 | 143 | 340 | 1110 | 504 |
| NQAPLEPLKPTATG [YIR006C 229-242] | 115 | 14.5 | 37.7 | 25.1 | 208 |
| NNGPKIPQKNTIDS [YKR029C 581-594] | 44.6 | 27.3 | 26.5 | 424 | 74.1 |
| NSPPTTPSKDESGP [YMR190C 45-58] | 43.4 | 29.9 | 40.1 | 101 | 293 |
| NIQPNIPLRSYRYL [YHL023C 782-795] | 13200 | 760 | 915 | 19500 | 5920 |
